Three molecules from patent US20060057652A1 (UNIVERSITY OF MASSACHUSETTS, published 2006) can be followed below.

Test [1] concerns the target T1, β-actin (UniProt P60709 2-375).
T1 construct: also called beta-actin
Briefly: anti-FLAG affinity purification from Ad-Apwt-infected H1299 cells, SDS-PAGE, MALDI-TOF.

The target in test [2] is T2, anaphase promoting complex subunit 1 (APC1) (Homo sapiens, UniProt Q9H1A4 1-1944).
T2 construct: Endogenous protein in lysates of H1299 (or PFF) cells, detected with a polyclonal anti-APC1 antibody or by MALDI-TOF; also called Cyclosome subunit 1; Protein TSG24
Briefly: anti-FLAG immunoprecipitation from H1299 cells, APC1 immunoblot.

T2 sequence (Q9H1A4 whole entry, one chain of several): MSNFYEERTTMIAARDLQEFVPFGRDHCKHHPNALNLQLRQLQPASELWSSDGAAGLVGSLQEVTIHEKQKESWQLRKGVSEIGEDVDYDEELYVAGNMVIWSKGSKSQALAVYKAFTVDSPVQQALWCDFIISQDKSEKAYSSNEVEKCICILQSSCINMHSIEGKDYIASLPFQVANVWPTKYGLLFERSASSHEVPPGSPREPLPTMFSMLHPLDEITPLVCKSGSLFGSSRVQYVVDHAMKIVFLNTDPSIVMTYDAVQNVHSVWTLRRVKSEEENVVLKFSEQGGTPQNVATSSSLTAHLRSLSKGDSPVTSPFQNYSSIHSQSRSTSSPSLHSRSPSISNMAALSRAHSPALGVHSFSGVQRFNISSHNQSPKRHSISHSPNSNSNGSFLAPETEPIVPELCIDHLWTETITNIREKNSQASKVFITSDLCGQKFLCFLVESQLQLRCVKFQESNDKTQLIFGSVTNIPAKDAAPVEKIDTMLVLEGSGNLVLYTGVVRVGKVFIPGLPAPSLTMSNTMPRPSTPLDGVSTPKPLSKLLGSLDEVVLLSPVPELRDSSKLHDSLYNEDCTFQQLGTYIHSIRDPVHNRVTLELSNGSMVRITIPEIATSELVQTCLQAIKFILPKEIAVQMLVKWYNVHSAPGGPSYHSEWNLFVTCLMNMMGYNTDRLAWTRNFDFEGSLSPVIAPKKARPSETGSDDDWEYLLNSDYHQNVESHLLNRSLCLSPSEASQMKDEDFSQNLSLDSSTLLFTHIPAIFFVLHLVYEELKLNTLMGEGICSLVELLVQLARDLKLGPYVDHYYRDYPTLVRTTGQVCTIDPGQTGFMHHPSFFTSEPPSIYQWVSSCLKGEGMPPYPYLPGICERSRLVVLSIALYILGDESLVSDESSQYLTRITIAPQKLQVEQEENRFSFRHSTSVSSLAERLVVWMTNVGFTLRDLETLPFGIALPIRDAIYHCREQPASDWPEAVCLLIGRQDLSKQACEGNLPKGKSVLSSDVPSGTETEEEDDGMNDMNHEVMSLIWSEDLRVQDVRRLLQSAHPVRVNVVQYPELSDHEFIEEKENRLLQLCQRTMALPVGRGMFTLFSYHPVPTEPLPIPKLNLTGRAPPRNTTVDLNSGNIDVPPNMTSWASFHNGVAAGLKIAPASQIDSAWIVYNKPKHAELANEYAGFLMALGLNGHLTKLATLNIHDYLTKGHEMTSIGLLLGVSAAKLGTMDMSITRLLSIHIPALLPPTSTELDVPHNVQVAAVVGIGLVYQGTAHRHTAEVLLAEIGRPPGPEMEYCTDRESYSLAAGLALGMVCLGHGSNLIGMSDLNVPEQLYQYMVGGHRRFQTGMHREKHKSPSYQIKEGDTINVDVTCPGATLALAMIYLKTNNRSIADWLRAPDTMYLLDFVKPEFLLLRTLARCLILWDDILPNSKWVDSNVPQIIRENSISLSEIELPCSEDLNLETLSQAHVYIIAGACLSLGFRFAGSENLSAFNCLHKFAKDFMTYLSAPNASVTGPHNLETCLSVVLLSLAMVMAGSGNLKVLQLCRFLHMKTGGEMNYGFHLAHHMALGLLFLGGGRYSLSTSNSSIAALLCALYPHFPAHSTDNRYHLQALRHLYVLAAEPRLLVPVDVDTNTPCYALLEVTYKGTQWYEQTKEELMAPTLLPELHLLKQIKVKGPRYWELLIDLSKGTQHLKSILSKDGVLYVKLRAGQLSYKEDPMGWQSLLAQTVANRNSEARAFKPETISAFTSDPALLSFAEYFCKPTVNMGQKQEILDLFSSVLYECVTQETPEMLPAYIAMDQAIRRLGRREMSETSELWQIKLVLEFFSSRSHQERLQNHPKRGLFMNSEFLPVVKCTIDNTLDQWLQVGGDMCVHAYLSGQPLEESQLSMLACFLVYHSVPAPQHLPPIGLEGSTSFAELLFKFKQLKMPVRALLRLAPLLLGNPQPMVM

B1: FLAG-tagged wild type Apoptin expressed from adenovirus Ad-Apwt (other)
chain: MNALQEDTPPGPSTVFRPPTSSRPLETPHCREIRIGIAGITITLSLCGCANARAPTLRSATADNSESTGFKNVPDLRTDQPKPPSKKRSCDPSEYRVSELKESLITTTPSRPRTAKRRIRL
notes: Expressed in infected H1299 or PFF cells and pulled down from lysates on anti-FLAG beads; also called FLAG-Apoptin; FLAG-tagged Apoptin
Take B1: the binding result in test [1] is recorded as “binds”.

B2: triple FLAG-tagged Ap-pmNLS2 (other)
chain: MNALQEDTPPGPSTVFRPPTSSRPLETPHCREIRIGIAGITITLSLCGCANARAPTLRSATADNSESTGFKNVPDLRTDQPKPPSKKRSCDPSEYRVSELKESLITTTPSRPRTAAAAIRL
notes: not shown: triple FLAG tag
As to B2, the binding result in test [2] was “no binding”.

B3: triple FLAG-tagged Ap-SV40NLS (other)
chain: MNALQEDTPPGPSTVFRPPTSSRPLETPHCREIRIGIAGITITLSLCGCANARAPTLRSATADNSESTGFKNVPDLRTDQPKPPSKKRPKKKRKV
notes: The make-up (Apoptin 1-88 plus SV40 LT NLS) is described for the GFP construct; not shown: triple FLAG tag
With B3, the binding result in test [2] is reported as “no binding”.
